Changes are numbered by the printed parent chain.
T1: GFP-9S library array, motif 4 ND N98E;D124S (synthetic construct, N98E;D124S)
T1 chain: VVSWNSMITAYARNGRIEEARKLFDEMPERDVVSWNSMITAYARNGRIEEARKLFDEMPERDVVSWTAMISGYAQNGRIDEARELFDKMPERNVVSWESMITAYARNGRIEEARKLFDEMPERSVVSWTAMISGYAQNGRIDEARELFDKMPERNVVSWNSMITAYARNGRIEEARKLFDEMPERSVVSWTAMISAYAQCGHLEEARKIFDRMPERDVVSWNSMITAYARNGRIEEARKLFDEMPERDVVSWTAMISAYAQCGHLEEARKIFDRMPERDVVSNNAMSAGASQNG

T2: GFP-9S library array, motif 4 ND N98D;D124A (synthetic construct, N98D;D124A)
T2 chain: T1 chain with E98D, S124A

T3: GFP-9S library array, motif 4 ND N98L;D124H (synthetic construct, N98L;D124H)
T3 chain: T1 chain with E98L, S124H

T4: GFP-9S library array, motif 4 ND N98G;D124T (synthetic construct, N98G;D124T)
T4 chain: T1 chain with E98G, S124T

T5: GFP-9S library array, motif 4 ND N98Q;D124Q (synthetic construct, N98Q;D124Q)
T5 chain: T1 chain with E98Q, S124Q


Assays:
Assay in all cases: high-throughput RNA pulldown from lysate on Ni-NTA beads; HRP: 50 mM Tris pH 8, 150 mM NaCl, 1 mM beta-mercaptoethanol, 50 ug/ml BSA, 3 ug/ml yeast RNA, 0.5% heparin; ITC and FP: Tris pH 8, 200 mM KCl, 5% glycerol; MST: 50 mM Tris pH 8, 200 mM NaCl, 1 mM DTT, BSA, heparin, 0.05% Tween 20
Settings in all cases: tags: N-terminal His-eGFP
[1] = biological target: T1, GFP-9S library array, motif 4 ND …
[2] = biological target: T2, GFP-9S library array, motif 4 ND …
[3] = biological target: T3, GFP-9S library array, motif 4 ND …
[4] = biological target: T4, GFP-9S library array, motif 4 ND …
[5] = biological target: T5, GFP-9S library array, motif 4 ND …

| Binder | Kd ([1]; label: 5' Cy5) | Kd ([2]; label: 5' Cy5) | Kd ([3]; label: 5' Cy5) | Kd ([4]; label: 5' Cy5) | Kd ([5]; label: 5' Cy5) | Kd ([1]; label: 5' IRDye 800CW) | Kd ([2]; label: 5' IRDye 800CW) | Kd ([3]; label: 5' IRDye 800CW) | Kd ([4]; label: 5' IRDye 800CW) | Kd ([5]; label: 5' IRDye 800CW) |
| --- | --- | --- | --- | --- | --- | --- | --- | --- | --- | --- |
| AUUACACGUGA (ssRNA) [Cy5-rpoA] | 422 nM | 103 nM | 179 nM | 169 nM | 118 nM | – | – | – | – | – |
| AUUAGACGUGA (ssRNA) [Cy5-rpoA-G] | 630 nM | 114 nM | 196 nM | 436 nM | 95.5 nM | – | – | – | – | – |
| AUUAAACGUGA (ssRNA) [IR-rpoA-A] | – | – | – | – | – | 938 nM | 233 nM | 399 nM | 108 nM | 167 nM |
| AUUAUACGUGA (ssRNA) [IR-rpoA-U] | – | – | – | – | – | 512 nM | 174 nM | 125 nM | 236 nM | 123 nM |
